Measurements from paper PMC2789664.

Legend:
GAPDH C149A = GAPDH C149A (Homo sapiens, UniProt P04406 1-335, C152A); experiment: EMSA
GAPDH D32A = GAPDH D32A (Homo sapiens, UniProt P04406 1-335, D35A); experiment: EMSA
Sequence of GAPDH D32A (P04406 whole entry D35A): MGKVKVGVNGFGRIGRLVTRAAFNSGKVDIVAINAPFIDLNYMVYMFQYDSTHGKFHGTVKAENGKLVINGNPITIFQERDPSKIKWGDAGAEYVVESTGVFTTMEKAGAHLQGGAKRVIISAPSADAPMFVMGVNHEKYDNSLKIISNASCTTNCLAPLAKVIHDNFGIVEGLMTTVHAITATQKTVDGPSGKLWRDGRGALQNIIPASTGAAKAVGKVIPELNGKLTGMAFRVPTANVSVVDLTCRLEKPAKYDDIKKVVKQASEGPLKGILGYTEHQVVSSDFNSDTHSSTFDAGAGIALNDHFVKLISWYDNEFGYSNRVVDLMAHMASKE

Sequence of GAPDH C149A (P04406 whole entry C152A): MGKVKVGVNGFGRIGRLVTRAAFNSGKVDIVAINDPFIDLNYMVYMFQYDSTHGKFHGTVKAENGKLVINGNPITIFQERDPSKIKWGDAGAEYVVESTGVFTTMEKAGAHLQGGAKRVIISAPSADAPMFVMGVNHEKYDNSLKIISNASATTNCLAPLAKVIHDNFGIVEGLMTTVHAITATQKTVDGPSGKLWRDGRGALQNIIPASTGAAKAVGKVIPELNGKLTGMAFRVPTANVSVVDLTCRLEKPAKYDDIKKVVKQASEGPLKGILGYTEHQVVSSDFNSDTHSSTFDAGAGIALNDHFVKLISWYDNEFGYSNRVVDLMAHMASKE

AGGGTTAGGGTTAGGGTT (ssDNA) [ss-(AGGGTT)3]: no binding (GAPDH C149A); no binding (GAPDH D32A).
